Experimental findings from a protein production outcome set (Wang et al. 2014) are described below.

The data set can be described thus: label from the status in PepcDB records.
Turning to “MLKTYQKLLAMGIFLIVLCSGNAAFAATNQVGGLSNVGFFHDYLIEPFSALLKGVAGLFHGEYGLSIILVTIIVRIVVLPLFVNQFKKQRIFQEKMAVIKPQVDSIQVKLKKTKDPEKQKELQMEMMKLYQEHNINPLAMGCLPMLIQSPIMIGLYYAIRSTPEIASHSFLWFSLGQSDILMSLSAGIMYFVQAYIAQKLSAKYSAVPQNPAAQQSAKLMVFIFPVMMTIFSLNVPAALPLYWFTSGLFLTVQNIVLQMTHHKSKKTAALTESVK”, the protein production result is on record as “failed”.

On to “MDTVTLARAFFGSSLAFHIIFATLGVGLSLMIFISEILYHWKKDSDYAIMAKRWTKAFAILLGVAIPTGTIVGVQISLLWPGFAKIVGQVISVPFQIEIFAFFLEALFMSIYVYAADKLPPFMRLISLFFVMLGATASAVLITSANTWMNTPAGFSMNPDGSVFNVDPWKAFFNPSFGTSAFHVVITAYATGAAVIASIAGFKLLKKNLSTREIAYHKKGLLLGLVVTFITGATMWLSGHESAIALHKHSPEKLASAEALFETTSHAPLSIGGVVDPNTLELNYALEIPNMLSLLVGLDPSTVVKGLKEFPQETWPPFYTHTLFNLMVGTAAFTFAVAAIALLYWYFVYRKKGTELPKWLLWGAAACGPIMMLGIEFGWIFSCSGRQPWTIYGMQRTVDASTRADFVGPLFVLFIILYIGLAILTVIVLRTFFRRHPLKNDLQHQGGDSHA”, for which the protein production result is listed as “failed”. “MHGVEFAPLERQHGSQVLALLRGTLLVPLPRLHQRLEEAYERDARLGLAQVALCRLAGNAEKVVGVLLARVATRRTCCAQVYIDAVAVDAVFQGQGIGSRLLLRVLTPCLPDGLEVREVFLHTPLQATELVAFYRSCGFESDDEVIDNYYPRRWMPQAQALVLRWRPPTAAQHQHEERKGPQDADVS”: the protein production result is “not failed”. The value for “SSSDIAYIYVNNKKSYLKDKKVRQALTYGLDRKKYVDTALQGYGSVANVPIAPVSWAYTEEGINKYPHDVEKAKKLLDEAGWKVGSDGVREKDGQKLKLTYYASNTGKTNDIFIPIAKESYKEIGVELNPELMDFNTMLSKVGKGDYDLAAVSTPGISDPSEVVSDYLSTNPKSDTGYSNPKVDDLIVKGIGTTDIEKRKAIYKELYKELSDDPPVILLNYRK” was “failed”; that for “MDPFASLAEAYEAWYGTPLGAYVIAEEERALKGLLPPGESLLEVGAGTGYWLRRLPYPQKVGVEPSEAMLAVGRRRAPEATWVRAWGEALPFPGESFDVVLLFTTLEFVEDVERVLLEARRVLRPGGALVVGVLEALSPWAALYRRLGEKGVLPWAQARFLAREDLKALLGPPEAEGEAVFLAPEAHPPYEEADLAGRRAGNRPALYLGRWR” was “not failed”; that for “MQETMLDLRTVYECNRCLGCKTLHPQVGIINLENPSLEEDAVKFEFYAVLLIEDCPGGCCCCGRKYYDYSNATMVFLTPGEIFRMSKENTLPDKGYLLAFHPDLLFRTSLKNHIKNYTFFHYRKEEALHLSRRETEKVTCCLSNIEDELHHPIDTHSSIILSRHIELLLDYCTRYYERQFITRENKNKALLENMERLFVEYIASGRLQGGKLPTSGYMAGELDLSVAYFDDLLKFETGKTLEEYLQLKRLDIARHMLLQDGHTPAAVARKLGYPNVQCFSVLFKKITGVAPSDYRLSQN” was “not failed”. The entry for “ETRIIKGFECKPHSQPWQAALFEKTRLLCGATLIAPRWLLTAAHCLKPRYIVHLGQHNLQKEEGCEQTRTATESFPHPGFNNSLPNKDHRNDIMLVKMASPVSITWAVRPLTLSSRCVTAGTSCLISGWGSTSSPQLRLPHTLRCANITIIEHQKCENAYPGNITDTMVCASVQEGGKDSCQGDSGGPLVCNQSLQGIISWGQDPCAITRKPGVYTKVCKYVDWIQETMKNN” is “failed”. The value for “MAMSVKTISPIEAHRLVTGGRAVLVDVRERHEIAREHIDGAIELPLTGFKHGDLGAAHGRKAIFFCHSGGRTRMYAGQIDAKARGVCEPYVLGGGILAWRRAGFPTVQGPKPPSLFQRLFGRKPAD” was “failed”; that for “MRTTAAEEAGLETETARRRFSRASLVNVAGNAVKILVEGAVGLAFGSVALLADAAHSVADLVASAVVLVWGRSVYTDPDENHPHGHQRVEPLAALFVGSLIVLLGLNLFYESATGLVAGPEVQFHPLLVGALLFAMADMYLLYWYTTHINESVGSSALEALAIDCRNDIYTTIAALCGVIGVFFGYPLFDAVAGGLVSVLVVYQGFEISRENVSYLVGASPSDQQRQRVVETLTDHPAVHGAHDVAVFYDGTDIEVEAHVEVDGELTLVEAHDIETELVSALRSLESVGDVHLHLDPAGIGEWKDAAVNEQRGPETQTGSPKQ” was “failed”. Consider “MGSGESKANTAETPEVLDVKLTGPEKVNPGESAAYEAAVSYGDEAVTDADEVEFEVWKEGEKDASQMFKVKQEKGVYRLETTFKEDGVYTVQSHVTAKKQHSMPTLKVQVGDADAASNQSEEEHSHHHLEHHHHHH”, for which the protein production entry is “not failed”. The entry for “MTGTSDDEEGKWKNRSTTLRRLGRQYSPDVTPEVASRRLKQWIVGNPVLLGLLHENGWTASRRVLTPKQVEQIVRVLGEP” is “failed”; for “MSGLVTGREIVQTARDENVPFMGASIAYYAIASIVPLLALLLAALSTFGGTVTLLELLRTVLSENGQVILTELLENTRGHGATGTLSLVLVVWSGSKVFRSLSVAFTEVYGEVTDISLPAQLVRSAVVMGVLLGAVVFLSATSVALTYVKFQVPYPTLVGNVAAFAALGVAFVPIYYVLPPVKTSLTHVAPGALFAAAGWITIQVGFFYYAGTAGRYAAYGYLGALLLFVTALYLAAIVLLLGVVVNATLDW” it is “failed”. The value for “MESLRSERNQYRILVDITNSVLAHLDMDGLISEVSKEIHRFFGLNHISLMLCRTSSQNSHEGILYSSRYQTGKSVIRQQRKFSSANNKAEEIIHQNKPVLIDINKEDQDDVLIKRLVKQNMQTALLLPLAFNRKPLGLLILAHEISSVFTEETCQLLQQIAARIGIAIENAAAYEEITHLKDS” was “not failed”. The value for “MKQKNVYIVIGFMLFALFFGAANLIYPAFLGIYSGHQILWSIIGFCLTGVSLPLLGVIAVAKSGSGDVESLARPISKWYAIFYSSILYLSIGPFFAIPRTGATSFSVGIAPILGDNTTNKAIYAILFFGLSYFLAIKPSKLAENIGKFLTPTLLVVISILVIASFVHPAGNYGDAFNAGVGVNNAFKDFPFIAGLIQGYGTMDALASLVFAILVIEATKQFGAKTDKEMTKITLISGAIAILLLALVYIFVGRIGATSQSLFPFIDGSFTLHGNPVNGGQILSHASRFYLGGIGQAFLAVVIFLACLTTSTGLITSSAEYFHKLVPALSHIAWATIFTLLSAFFYFGGLSVIINWSAPVLFLLYPLTVDLIFLVLAQKCFNNDPIVYRTTIGLTFIPAIFDALLTLSQMTGLFHLPEAVVTFFQKTVPLGQFSMGWIIFAAIGFLIGLILSKTKKS” was “failed”; that for “MENVKKCKNFLSTLIKLASSGKQSTETAANVKELVQNLLDGKIEAEDFTSRLYRELNSSPQPYLVPFLKRSLPALRQLTPDSAAFI” was “failed”. With “MAWHAAEDRSLGFKETYLMQRFGAGVVIDDFELVEKLPSGGMASLWRATNPRYDFPLVLKIPFLDPGADVSVILGFEAEELILKRLSGPHVPRFAASGSLAQVPYIAMEFVVGKGLADIVGNAPLPMDEVARIGIEIATALAALHRQKVVHLDLKPENVVLANRGAVLLDFGLARHEELPDFLGAESSVPMGTAAYISPEQVLGERSDPASDLFALGCILFQLATGEEPFGRPATLAGMKRRLYHAPRSPRDINDAIPRWLEAIILKCMEVDRSQRYIEAAHILSDLRSPDQVVVAKRKPRNEGGWAAITSLFRKTDDRSLVGRASSTRTQAGPSIVLAAVDLANGTDALAGEVLNETARVLASREDSWLACVTVLRTEIIGDTPATDETGRSVYLKRLVALKDWAYPLHLPEDRISYHVLEAVSPADAILTYAEHNDVGHIVVGARASSAIRRHLGSVSTKVVAQALCSVSVVRLKAVEEQQRRPL”, the protein production result was “failed”. The value for “MLVRLTMICNGATAATRRGSFPLDEPLEPRSLTRAKAMRGTLRHADRAWTAPALRARQIAEALSLEAAVEPLLADQDHGSWAGKSFEDVQAEQPGDIAAWLADPDAAPHGGESLADVARRASGLMEKLMAEPGHTIAMTHASVIRTAIVHVLGAPLAACWKIDIEPLSITDFRSDGRRWVLRACGVTSPKAAKPLLR” was “failed”; that for “LSASEERFQLAVSGASAGLWDWNPKTGAMYLSPHFKKIMGYEDHELPDEITGHRESIHPDDRARVLAALKAHLEHRDTYDVEYRVRTRSGDFRWIQSRGQALWNSAGEPYRMVGWIMDVTDRKRDEDALRVSREELRRL” was “not failed”; that for “MRNIYSIYKEHYKALISLGLPIVIGQIGVIVLGFADTLMIGHHSTIELGAASFVNNVFNLVIIFSTGFSYGLTPIVGGLYGTHQYASAGQALRNSLLANLLVAFLLTIGMTVLYFNVGNLGQPEELIPLIKPYYLVLLASLVFVMLFNGFKQFTDGITDTKTAMWILLGGNVLNIIGNYILIYGKLGLPEMGLLGAGISTLFSRIMMVVVFIIVFMRSPRFLRFKLGFYRLGWSKAIFGRLNSLGWPIAFQMGMETASFSLSAVMIGWLGTIALASHQVMLAISQFTFMMYYGMGAAVAVRVSNFNGQGDILNVRRSAYAGFHLMMALGVVLSSIVFLCRNYLGGWFTDSTEVAAMVTSLILPFLVYQFGDGLQITFANALRGISDVKLMMLIAFIAYFLISLPVGYFCGFVLEWGIIGVWMAFPFGLTSAGLMLWWRFHHKTKLPPSIQNS” was “not failed”. Take “QSLELGTMQPSFTSVTGKGGVKVIDGSSVKFGRFDGAEPHCVGLTDLVTEQDGSSMAAGFMQWDNAFFPWTLNYDEIDMVLEGELHVRHEGETMIAKAGDVMFIPKGSSIEFGTPTSVRFLYVAWPANWQSV”: the protein production entry is listed as “not failed”. The entry for “MNYEEIVCDANNLYRAYKASVKTSKWKETTQKFMMNFLRYIFSIQDDLINRTLQNGPTQEFTLFERGRVRPITSIQIRDRIIRHVLCDEILLPEVKKHIIYDNCASIKGRGISHQRDRFEVHLRKYYRLYGNEGWILFGDFSKFYDNIIHEIAKRELLRLFDDDEFIDWLLTQIFDGFKIDVSYMTDEEYATCMTDTFNKLEYRNIPESKLTGEKWMEKSVNIGDQLSQVIGIYYPYRIDNYVKYVRSQKFYGRYMDDWYIMNPSKEELLDLLDHIHQIAEEYGIHINRKKTRIVKISSTYKFLQIKYSLTDSGKVIKRINPKRVTAMRRKLKRLAVKVKNEEISYENVENMFRSWMGGFYKLLSKEQRKNLIGLYEDLFEKSIEIVNKKMIIVDKTR” is “failed”; for “RGIIRLIKDNKSLTMKNTEVMLHGSSLAFDASTLEIYAALLNGACLSIIDKEDLIDSQTLKEKLKNDHVNRAFFTTPLFNSLCEQDPSVFNELEQVIIGGDRASNKHLKIVMKNSKKTQFYNGYGPTENTVFTTMHNIQYSELEGDIPIGKA” it is “failed”; for “MTELDQFWPACLARLEAELSSQQFNTWIKPLTAEAGDEGIALFAPNRFIMQFIKDRFLPRIEELAVELVGELPVELRLGAPTARPAAPVAGNSQPKAKEPAKAAASAPAAPSPAKQAAVKAIGGSHESTRLNPSFTFDTLVTGKGNQLARAAAMQIAENPGDQAYNPLFVYGGVGLGKTHLIQAIGNHVFQKNPQAKIRYIHAERYVADIMRAYQHKAFDEFKRYYHSLDLLLIDDIQFFAGKNRTQEEFFYAFNALIEGGKQVIMTCDSYPKQIEGMEERLISRFSWGLTVEIQPPELEMRVAILMKKAEADSIKLEHNVAFFIAQNVRSNVRELEGALKRVVAYARFTSQNITLELVKEALKDILAAGNRQVTVDAIQKTVAEYYKIKLSDMHSKKRSRDIARPRQVAMALAKELTQLSLPNIGDAFGGRDHTTVLHACKTITEMRASDADIAHDYEALLSMLRNLEHHHHHH” it is “failed”.
